System: MS2 coat protein
Experiment: apparent KD of MS2 coat protein; designed switch direction (-1 OFF switch, 1 ON switch): -1; higher = weaker reporter binding
Method in brief: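 Each step of the titration lasted 0.8–1.5 h at the lowest concentration and 10–20 min at the highest. The protein, SNAP-549-labelled MS2 coat protein, went from 0.7 or 1.5 nM doubling to 3 µM over RNA switches transcribed on Illumina chips by stalled E. coli RNA polymerase. Normalised cluster fluorescence was curve-fitted, and the per-design median over clusters is given as apparent KD.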

[1] = Eterna round: R95, input ligand: FMN 200 uM
[2] = Eterna round: R95, input ligand: microRNA oligo, concentration not stated
[3] = Eterna round: R95, input ligand: none
[4] = input ligand: microRNA oligo, concentration not stated

Sequence	apparent KD of MS2 coat protein [1] [nM]	apparent KD of MS2 coat protein [2] [nM]	apparent KD of MS2 coat protein [3] [nM]	apparent KD of MS2 coat protein (input ligand: FMN 200 uM) [nM]	apparent KD of MS2 coat protein (input ligand: none) [nM]	apparent KD of MS2 coat protein [4] [nM]
CAGUACUACAAGCUUCGGGACAUGAGGAUCACCCAUGUUCGUCUUAUUGAUCUAGGUACGCUGACGUACCUAGAUCU [JL-sv1-2.13 Brourd mod] (puzzle: Sensor v3, turn-off variant 1)	18.6	32.4	16.1	–	–	–
CAGUACUGAGGAUAUACAUGAGGAUCACCCAUGUGAACCAGCUAGGAUACUAGCAAAAGUAGAAGGCAGUACUG [Mat - Exclusion 3 - Eli Mod - D17] (Eterna round: R97, puzzle: Exclusion 3)	–	–	–	67	71.4	–
CAGUACUGAGGAUAUACAUGAGGAUCACCCAUGUGAGCGAUACUAGUGAGGUCGAUUAGUAGAAGGCAGUACUG [Mat X3R4 m33] (Eterna round: R97, puzzle: Exclusion 3)	–	–	–	353	32	–
CAGUACUGAGGAUAUACAUGAGGAUCACCCAUGUGAUAAGGUUAGGAAACUAACCUAUGUAGAAGGCAGUACUG [Eli x3 4.08] (Eterna round: R97, puzzle: Exclusion 3)	–	–	–	603	104	–
CAGUACUGAGGAUAUACAUGAGGAUCACCCAUGUGCUUUAGCUAGGAUACUAGCAUUAGUAGAAGGCAGUACUG [Fiskers Ex 3 828 mod 9] (puzzle: Exclusion 3)	–	11.3	–	–	–	–
CAGUACUGAGGAUAUACAUGAGGAUCACCCAUGUGUUCCAGCUAGGAAACUAGCAAAGGUAGAAGGCAGUACUG [salish99_ex3_r3_065] (Eterna round: R96, puzzle: Exclusion 3)	–	–	–	–	–	23.2
CAGUACUGAGGAUAUACAUGAGGAUCACCCAUGUGUUCCAGCUAGGAAACUAGCAAAGGUAGAAGGCAGUACUG [salish99_ex3_r3_065] (puzzle: Exclusion 3)	587	23.9	23.3	–	–	–
CAGUACUGAGGAUAUACAUGAGGAUCACCCAUGUGUUCCAGCUAGGAAACUAGCAGAAGUAGAAGGCAGUACUG [salish99_ex3_r3_067] (Eterna round: R96, puzzle: Exclusion 3)	–	–	–	311	23.3	17
CAGUACUGAGGAUAUACAUGAGGAUCACCCAUGUGUUCCAGCUAGGAAACUAGCAGAAGUAGAAGGCAGUACUG [salish99_ex3_r3_067] (puzzle: Exclusion 3)	425	25.5	23.9	–	–	–
CAGUACUGAGGAUAUACAUGAGGAUCACCCAUGUGUUCCAGCUAGGAAACUAGGAAAAGUAGAAGGCAGUACUG [salish99_ex3_r3_069] (puzzle: Exclusion 3)	–	23.1	–	–	–	–
CAGUACUGAGGAUAUACAUGAGGAUCACCCAUGUGUUCCGGCUAGGAUACUAGCAAAGGUAGAAGGCAGUACUG [Mat - Exclusion 3 - Eli Mod - D22] (Eterna round: R97, puzzle: Exclusion 3)	–	–	–	458	35.4	–
CAGUACUGAGGAUAUACAUGAGGAUCACCCAUGUUUUCCAGCUAGGAAACUAGCAAAUGUAGAAGGCAGUACUG [Salish 065 m5] (Eterna round: R97, puzzle: Exclusion 3)	–	–	–	253	25.4	–
CAGUACUGAGGAUAUACAUGAGGAUCACCCAUGUUUUCCAGCUAGGAUACUAGCAAGUGUAGAAGGCAGUACUG [Mat - Exclusion 3 - Eli Mod - D6] (Eterna round: R97, puzzle: Exclusion 3)	–	–	–	273	24.5	–
CAGUACUGCAGGCUUAGGGACAUGAGGAUCACCCAUGUUCGUCUUAUUGAUCUAGGUACGCUGACGUACCUAGAUCU [JL-sv1-2.15 Brourd mod] (puzzle: Sensor v3, turn-off variant 1)	16.9	19	18.1	–	–	–
CAUACAGUAGUCAGGAUAUUGCAACACACACGGAACGAGAAGGGACAUGAGGAUCACCCAUGUAUACUGUAAAG [EX-4 Malc #5] (puzzle: Brourd's mod of Exclusion 4)	16	21	24.7	–	–	–
CAUACAGUAGUCAGGAUAUUGGAAGAGACACGGAACGAGAAGGGACAUGAGGAUCACCCAUGUAUACUGUAAAG [EX-4 Malc #4] (Eterna round: R96, puzzle: Brourd's mod of Exclusion 4)	–	–	–	22.3	29.9	25.5
CAUACAGUAGUCAGGAUAUUGGAAGAGACACGGAACGAGAAGGGACAUGAGGAUCACCCAUGUAUACUGUAAAG [EX-4 Malc #4] (puzzle: Brourd's mod of Exclusion 4)	–	23.8	–	–	–	–
CAUCACUGUGUCAGGAUAUCAUUUGGACGUCUAAGUGAGAAGGGACAUGAGGAUCACCCAUGUGGAGCUGGCCA [Eternabot (L1) Solution 63] (Eterna round: R97, puzzle: Brourd's mod of Exclusion 4)	–	–	–	73.5	41.8	–
CAUCCACAUGAGGAUCACCCAUGUCAGGAUAUCUAUCAUAGCAUCGAAAGAUGCGGGUAGAGAAGGGACAAACC [ChP Ext 10-04-2015 #9] (puzzle: Exclusion 1)	–	12.4	–	–	–	–
CAUCCAGCUUCCCUUCAAAACAUGAGGAUCACCCAUGUUUUUGUUUUUACAAGCUUUUUGCUUUUUGCUCGUCUUGU [A Humble Attempt... Again] (puzzle: Sensor v3, turn-off variant 1)	20.5	16	21.5	–	–	–
CAUGAUUGACGAGGAUAUUGUACUACAUCACGACGAGAAGGCGUCUGUCACAUGAGGAUCACCCAUGUGAGACUGGUGAAUGAG [Ex NG1 #80] (Eterna round: R96, puzzle: Exclusion NG 1)	–	–	–	31.6	26.2	16.7
CAUGAUUGACGAGGAUAUUGUUCUACAUGGCGACGAGAAGGCGUCUGUCACAUGAGGAUCACCCAUGUGAGUCUGGUGAAUGAG [Ex NG1 #83] (Eterna round: R96, puzzle: Exclusion NG 1)	–	–	–	–	–	25.7
CAUGAUUGGGAAGGAUAUUGACCUAGUUAGCGCCGAGAAGGUCCCUGUCACAUGAGGAUCACCCAUGUGAAUCUGGUGAAAGAG [Ex NG1 #93] (Eterna round: R96, puzzle: Exclusion NG 1)	–	–	–	26.1	22.9	16.6
CAUGGAACGUAGGAUAUCUCGCGGCUAGGCUGCAGAGAAGGACGCACAUGAGGAUCACCCAUGUGUGAUCCAAA [Tibiataus] (puzzle: Exclusion 6)	27.6	17	21.9	–	–	–
CAUGUAAGUCGUUGAUCCAACAUGAGGAUCACCCAUGUCACUUUAGCUUUUUGCUCGUCUUAUCCUCCUUUGUUCAC [JR_STOV1_v2_Sub0100] (Eterna round: R97, puzzle: Sensor, turn-off variant 1)	–	–	–	482	1060	–
CAUGUCUGAGGAUAUCGUUUUUUGUACAUGAGGAUCACCCAUGUCCUAUUUUUUAUAUUACGAGAAGGCAGUGGAU [JR_E5_Sub091] (Eterna round: R96, puzzle: Exclusion 5)	–	–	–	27.9	39.2	27.8
